*1 amine or outer side, *2 acyl side, *3 side chain or, on linkers, in order; H or OH if unused. Where no end group is shown, it is not given here. Side-chain parts run from the residue outwards. The star is where a group is joined. C18 diacid = O=C(O)CCCCCCCCCCCCCCCCC(=O)*; C16 diacid = O=C(O)CCCCCCCCCCCCCCC(=O)*; γGlu = O=C(O)[C@H](CCC(=O)[*:2])N[*:1]; AEEA = NCCOCCOCC(=O)O
T1: human GIP receptor (human, UniProt P48546 22-466)
T1 sequence (looked up): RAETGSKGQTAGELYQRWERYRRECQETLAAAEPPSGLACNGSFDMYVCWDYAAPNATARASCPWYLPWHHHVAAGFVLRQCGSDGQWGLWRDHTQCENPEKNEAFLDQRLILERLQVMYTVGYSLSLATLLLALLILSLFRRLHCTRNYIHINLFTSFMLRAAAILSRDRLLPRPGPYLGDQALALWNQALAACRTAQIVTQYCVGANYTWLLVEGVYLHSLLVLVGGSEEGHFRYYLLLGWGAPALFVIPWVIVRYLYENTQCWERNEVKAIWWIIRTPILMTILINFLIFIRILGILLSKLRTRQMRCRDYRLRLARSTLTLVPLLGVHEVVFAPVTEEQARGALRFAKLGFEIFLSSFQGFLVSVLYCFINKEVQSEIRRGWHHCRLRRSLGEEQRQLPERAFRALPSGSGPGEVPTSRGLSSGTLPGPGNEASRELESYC

B1: AT433 (peptide)
peptide: EGTFISDYSIAMDKIK([AEEA-AEEA-γGlu-C18 diacid])QQDFVNWLLAQKGPSSGAPPPS
B2: AT435 (peptide)
peptide: SGTFISDYSIAMDKIK([AEEA-AEEA-γGlu-C16 diacid])QQDFVNWLLAQKGPSSGAPPPS-OH
modifications: N-terminus assumed
SMILES: CC[C@H](C)[C@H](NC(=O)[C@H](CO)NC(=O)[C@H](Cc1ccc(O)cc1)NC(=O)[C@H](CC(=O)O)NC(=O)[C@H](CO)NC(=O)[C@@H](NC(=O)[C@H](Cc1ccccc1)NC(=O)[C@@H](NC(=O)CNC(=O)[C@@H](N)CO)[C@@H](C)O)[C@@H](C)CC)C(=O)N[C@@H](C)C(=O)N[C@@H](CCSC)C(=O)N[C@@H](CC(=O)O)C(=O)N[C@@H](CCCCN)C(=O)N[C@H](C(=O)N[C@@H](CCCCNC(=O)COCCOCCNC(=O)COCCOCCNC(=O)CC[C@H](NC(=O)CCCCCCCCCCCCCCC(=O)O)C(=O)O)C(=O)N[C@@H](CCC(N)=O)C(=O)N[C@@H](CCC(N)=O)C(=O)N[C@@H](CC(=O)O)C(=O)N[C@@H](Cc1ccccc1)C(=O)N[C@H](C(=O)N[C@@H](CC(N)=O)C(=O)N[C@@H](Cc1c[nH]c2ccccc12)C(=O)N[C@@H](CC(C)C)C(=O)N[C@@H](CC(C)C)C(=O)N[C@@H](C)C(=O)N[C@@H](CCC(N)=O)C(=O)N[C@@H](CCCCN)C(=O)NCC(=O)N1CCC[C@H]1C(=O)N[C@@H](CO)C(=O)N[C@@H](CO)C(=O)NCC(=O)N[C@@H](C)C(=O)N1CCC[C@H]1C(=O)N1CCC[C@H]1C(=O)N1CCC[C@H]1C(=O)N[C@@H](CO)C(=O)O)C(C)C)[C@@H](C)CC
B3: AT437 (peptide)
peptide: SGTFISDYSIAMDKIK([AEEA-AEEA-γGlu-C18 diacid])QQDFVNWLLAQKGPSSGAPPPS-OH
modifications: N-terminus assumed
SMILES: CC[C@H](C)[C@H](NC(=O)[C@H](CO)NC(=O)[C@H](Cc1ccc(O)cc1)NC(=O)[C@H](CC(=O)O)NC(=O)[C@H](CO)NC(=O)[C@@H](NC(=O)[C@H](Cc1ccccc1)NC(=O)[C@@H](NC(=O)CNC(=O)[C@@H](N)CO)[C@@H](C)O)[C@@H](C)CC)C(=O)N[C@@H](C)C(=O)N[C@@H](CCSC)C(=O)N[C@@H](CC(=O)O)C(=O)N[C@@H](CCCCN)C(=O)N[C@H](C(=O)N[C@@H](CCCCNC(=O)COCCOCCNC(=O)COCCOCCNC(=O)CC[C@H](NC(=O)CCCCCCCCCCCCCCCCC(=O)O)C(=O)O)C(=O)N[C@@H](CCC(N)=O)C(=O)N[C@@H](CCC(N)=O)C(=O)N[C@@H](CC(=O)O)C(=O)N[C@@H](Cc1ccccc1)C(=O)N[C@H](C(=O)N[C@@H](CC(N)=O)C(=O)N[C@@H](Cc1c[nH]c2ccccc12)C(=O)N[C@@H](CC(C)C)C(=O)N[C@@H](CC(C)C)C(=O)N[C@@H](C)C(=O)N[C@@H](CCC(N)=O)C(=O)N[C@@H](CCCCN)C(=O)NCC(=O)N1CCC[C@H]1C(=O)N[C@@H](CO)C(=O)N[C@@H](CO)C(=O)NCC(=O)N[C@@H](C)C(=O)N1CCC[C@H]1C(=O)N1CCC[C@H]1C(=O)N1CCC[C@H]1C(=O)N[C@@H](CO)C(=O)O)C(C)C)[C@@H](C)CC
B4: AT475 (peptide)
peptide: FISDYSIAMDKIK(C16 diacid)QQDFVNWLLAQKGPSSGAPPPS-OH
modifications: N-terminus assumed
SMILES: CC[C@H](C)[C@H](NC(=O)[C@H](CO)NC(=O)[C@H](Cc1ccc(O)cc1)NC(=O)[C@H](CC(=O)O)NC(=O)[C@H](CO)NC(=O)[C@@H](NC(=O)[C@@H](N)Cc1ccccc1)[C@@H](C)CC)C(=O)N[C@@H](C)C(=O)N[C@@H](CCSC)C(=O)N[C@@H](CC(=O)O)C(=O)N[C@@H](CCCCN)C(=O)N[C@H](C(=O)N[C@@H](CCCCNC(=O)CCCCCCCCCCCCCCC(=O)O)C(=O)N[C@@H](CCC(N)=O)C(=O)N[C@@H](CCC(N)=O)C(=O)N[C@@H](CC(=O)O)C(=O)N[C@@H](Cc1ccccc1)C(=O)N[C@H](C(=O)N[C@@H](CC(N)=O)C(=O)N[C@@H](Cc1c[nH]c2ccccc12)C(=O)N[C@@H](CC(C)C)C(=O)N[C@@H](CC(C)C)C(=O)N[C@@H](C)C(=O)N[C@@H](CCC(N)=O)C(=O)N[C@@H](CCCCN)C(=O)NCC(=O)N1CCC[C@H]1C(=O)N[C@@H](CO)C(=O)N[C@@H](CO)C(=O)NCC(=O)N[C@@H](C)C(=O)N1CCC[C@H]1C(=O)N1CCC[C@H]1C(=O)N1CCC[C@H]1C(=O)N[C@@H](CO)C(=O)O)C(C)C)[C@@H](C)CC
B5: AT434 (peptide)
peptide: EGTFISDYSIAMDKIK([AEEA-AEEA-AEEA-γGlu-C18 diacid])QQDFVNWLLAQKGPSSGAPPPS-OH
modifications: N-terminus assumed
SMILES: CC[C@H](C)[C@H](NC(=O)[C@H](CO)NC(=O)[C@H](Cc1ccc(O)cc1)NC(=O)[C@H](CC(=O)O)NC(=O)[C@H](CO)NC(=O)[C@@H](NC(=O)[C@H](Cc1ccccc1)NC(=O)[C@@H](NC(=O)CNC(=O)[C@@H](N)CCC(=O)O)[C@@H](C)O)[C@@H](C)CC)C(=O)N[C@@H](C)C(=O)N[C@@H](CCSC)C(=O)N[C@@H](CC(=O)O)C(=O)N[C@@H](CCCCN)C(=O)N[C@H](C(=O)N[C@@H](CCCCNC(=O)COCCOCCNC(=O)COCCOCCNC(=O)COCCOCCNC(=O)CC[C@H](NC(=O)CCCCCCCCCCCCCCCCC(=O)O)C(=O)O)C(=O)N[C@@H](CCC(N)=O)C(=O)N[C@@H](CCC(N)=O)C(=O)N[C@@H](CC(=O)O)C(=O)N[C@@H](Cc1ccccc1)C(=O)N[C@H](C(=O)N[C@@H](CC(N)=O)C(=O)N[C@@H](Cc1c[nH]c2ccccc12)C(=O)N[C@@H](CC(C)C)C(=O)N[C@@H](CC(C)C)C(=O)N[C@@H](C)C(=O)N[C@@H](CCC(N)=O)C(=O)N[C@@H](CCCCN)C(=O)NCC(=O)N1CCC[C@H]1C(=O)N[C@@H](CO)C(=O)N[C@@H](CO)C(=O)NCC(=O)N[C@@H](C)C(=O)N1CCC[C@H]1C(=O)N1CCC[C@H]1C(=O)N1CCC[C@H]1C(=O)N[C@@H](CO)C(=O)O)C(C)C)[C@@H](C)CC
B6: AT431 (peptide)
peptide: EGTFISDYSIAMDKIK([AEEA-AEEA-γGlu-C16 diacid])QQDFVNWLLAQKGPSSGAPPPS-OH
modifications: N-terminus assumed
SMILES: CC[C@H](C)[C@H](NC(=O)[C@H](CO)NC(=O)[C@H](Cc1ccc(O)cc1)NC(=O)[C@H](CC(=O)O)NC(=O)[C@H](CO)NC(=O)[C@@H](NC(=O)[C@H](Cc1ccccc1)NC(=O)[C@@H](NC(=O)CNC(=O)[C@@H](N)CCC(=O)O)[C@@H](C)O)[C@@H](C)CC)C(=O)N[C@@H](C)C(=O)N[C@@H](CCSC)C(=O)N[C@@H](CC(=O)O)C(=O)N[C@@H](CCCCN)C(=O)N[C@H](C(=O)N[C@@H](CCCCNC(=O)COCCOCCNC(=O)COCCOCCNC(=O)CC[C@H](NC(=O)CCCCCCCCCCCCCCC(=O)O)C(=O)O)C(=O)N[C@@H](CCC(N)=O)C(=O)N[C@@H](CCC(N)=O)C(=O)N[C@@H](CC(=O)O)C(=O)N[C@@H](Cc1ccccc1)C(=O)N[C@H](C(=O)N[C@@H](CC(N)=O)C(=O)N[C@@H](Cc1c[nH]c2ccccc12)C(=O)N[C@@H](CC(C)C)C(=O)N[C@@H](CC(C)C)C(=O)N[C@@H](C)C(=O)N[C@@H](CCC(N)=O)C(=O)N[C@@H](CCCCN)C(=O)NCC(=O)N1CCC[C@H]1C(=O)N[C@@H](CO)C(=O)N[C@@H](CO)C(=O)NCC(=O)N[C@@H](C)C(=O)N1CCC[C@H]1C(=O)N1CCC[C@H]1C(=O)N1CCC[C@H]1C(=O)N[C@@H](CO)C(=O)O)C(C)C)[C@@H](C)CC

These binders were tested against T1, human GIP receptor (assay: cell-based or functional assay).

Binder	cAMP antagonism	cAMP antagonism % inhib	cAMP antagonism log
B1	62 nM	100%	-7.2 log M
B2	75 nM	100%	-7.1 log M
B3	8 nM	100%	-8.1 log M
B4	4 nM	100%	-8.4 log M
B5	14 nM	100%	-7.9 log M
B6	7 nM	75%	-8.1 log M

Target: T1, human GIP receptor
Test: cell-based or functional assay
Remark: another data set of the same source

Binder	cAMP agonism % Emax	cAMP antagonism	cAMP antagonism % inhib	cAMP antagonism pIC50
B1	0%	7.94 nM	89%	8.1
B2	–	79.4 nM	84%	7.1
B3	0%	35.5 nM	83%	7.5
B4	0%	7.9 nM	96%	8.1
B5	–	35.5 nM	95%	7.5
B6	0%	34.2 nM	77%	7.5
